Measurements reported in PMC8196545 (Cell reports, 2021).

The binders below were run against HIV-1 NL4-3 Env on infected cells (HIV-1 group M subtype B, NL4-3 (pNL4-3 …, strain)).

Binder | binding result
c5221 (antibody, V domains shown) VH: QPQMKQSGIEVKKPGAAVKVSCKPSGYWFIACGISWVRQAPGRGLEWLGWVYPYNGKVNLARKFWGRVTLTADRSTETAYMELKSLTSDDTAIYYCARDSEQYDAAMPNYFTEYGMDVWGQGTTVIVSS VL: EIVLTQSPDTLSLSPGETAALSCRASQSITGKGLAWYKQRPGQPPSLFVFGVSKRAAGVPDRVSGSGSGTDYILTIRRLEPEDSAVYFCQQYQDPARTFGQGTKLEIK | binds
c5539 (antibody, V domains shown) VH: QVRLEQWGPGLLKPSETLSLTCAVYGESFDDYSWTWIRQTPSLGLQWIGEIRPFGEIVHKSSLSGRLSFSRDASMRRVYLKLTSVTAADAGVYFCARGPVIYQNPHFYYRGYNVWGQGTTVTVSA VL: DVAVTQSPRSLVVTPGETATIFCRSSQSLRHGNGMHYLDWYLQKPGQSPQLLIYLTSNRASGVPDRFSGSGSGTEFTLKISRVEADDVGIYYCMQAIQDPRVFGQGTRLELK | binds
c1369 (antibody, V domains shown) VH: QVRLHQWGEGLLRPSDTLSLTCSLSGNVFYRTFFNWIRQSPGKGLEWIAEVSFAGDWTYNPSLKSRVTTYVDGFKYHVSLQMRSMTAADAGVYYCASGGGSFDVDSWGQGIRVTVSS VL: EIVLTQTPLSSSVTLGQSASISCRSSQSLQHSNGNTYLSWFQQRPGQPPRLLIRKISNRFSEVPDRFTGSGSGTDFTLTIDRVEPEDVGTYYCVQATQFPWTFGQGTTVDIT | binds
c1141 (antibody, V domains shown) VH: QVRLHQWGEGLLRPSDTLSLTCSLSGNVFYETFFNWIRQSPGKGLEWIAEVSFAGDWNYNPSLKSRVTTYVDGFKYHASLHMRSMTAADAGVYYCAAGGGSFDVHSWGQGIRVTVSS VL: EIVLTQTPLSSSVTLGQAASISCTSNHSLQHSNGNTYLSWFQQRPDQPPRLLIRKISNRGSGVPDRFSGSGSGTHFTLTIDRVEPEDVGTYYCVQATQFPWTFGQGTTVDIT | binds
c11058 (antibody, V domains shown) V domain 1: EVRLDQSGTEMRKPGTRVRLSCKVSGHTTSDFFVHWVQQTPQGGPQWMGLINVEDENVIYADIFQGRISIVADTSKKTVFLDLTDLTFEETALYFCTTHTLQKDTGDYVAAFDSWGRGTLLYVSS V domain 2: QPVLTQPPSVSAVPGQKVIISCSGRTSNIGTNFVSWYQQFPGAAPKLLIYDDFNRPSGISDRFSASKSDTSATLAITALQPGDEAEYYCGAWDSGLNPAVFVFGSGTRVFVL | binds
c10833 (antibody, V domains shown) V domain 1: EVRLDQSGAEMRKPGTSVRLSCTVSGHTTNDFFIHWVKQDPQRGPLWMGLINVEDENVIYAEEFQGRISIVADSSKTTVFLDLSHLTFEDTALYLCTTHTLEKETGDYVAAFDSWGQGTFLSVSS V domain 2: QSVLTQPPSVSAVPGQKVIISCSGRTSNIGTNFVSWYQQFPGAAPKLLIYDTFHRPSGISDRFSASKSDTSATLAITALQPGDEAEYYCGSWDSGLNPAVFVFGSGTRVFVL | binds
c27071 (antibody, V domains shown) VH: QFRLEQSGAEVKRPGSSVKVSCKATGGTFHTFVLSWVRQAPGQALEWMGGIIPIFGTAKYAQRFQGRVTFTTDEATNTAYMDLRRLTSDDTAVYFCARSATSDTALVDYGDYEADTFYHNHMDVWGGGTSVTVSS VL: QSVLTQPPSASATPGQRVTISCSGSSSNIGSNSVTWYHQLPGTAPKVLIYSNDRRPSGVPDRFSGSKSGTSASLAISGLQSDDEGDFYCAAWDDSLKSPVFGGGTKLTVL | binds
c11673 (antibody, V domains shown) VH: EVKLVESGGTQVQPGGSLRISCVGSGIRFSSYSFNWVRQAPGKGPEWLAYISASPFGRSKVTYAQSVEGRFTVSRDNDANSLYLQMTGLTRDDTAVYYCARAPYYEGNFHYNYAMDVWGLGTPVIVSS VL: GVVLTQSPGTLSVSPGERATVSCRASQSLSRDSLVWYQQKPGQPPRLLIFGTSNRVPGIPDRFSGGGSGTQFTLTISRLEPEDFAVYYCQNYGLSPLYSFGQGTKLEIK | binds
c9674 (antibody, V domains shown) VH: EVKLVESGGTLVKPGGSLRISCAASGFRFSSYSFNWVRQAPGKGPEWVAYISASPLGRSKVNYAHSVEGRFSVSRDNDAKSLHLQMSGLTRDDTAVYHCARAPWYEGNFNYNYAMDVWGQGTTVIVSS VL: GVVLTQSPGTLSLSPGERVTVSCRASQSLSRDSLVWYQQKPGQPPRLLIYGASNRVPGIPDRFSGDGSGTQFTLTINRLEPEDFGVYYCQSYGHSPLYSFGQGTKLEIK | binds
c11465 (antibody, V domains shown) VH: EVKLVESGGTQVQPGGSLRISCVGSGFRFSSYSFNWVRQAPGKGPEWVAYISASPFGRSKVTYAHSVEGRFIVSRDNDANSLYLQMTGLTRDDTAVYHCARAPYYEGNFQYNYAMDVWGLGTTVIVSS VL: GVVLTQSPGTLSLSPGERATVSCRASQSLTRDSLVWYQQKPGQPPRLLIYGTSNRVPGIPDRFSGGGSGTQFTLTISRLEPEDFAVYYCQSYGLSPLYSFGQGTKLDIK | binds
c11452 (antibody, V domains shown) VH: EVKLVESGGTQVQPGGSLRISCVGSGFRFSSYSFNWVRQAPGKGPEWLTYISASPFGRSKVTYAPSVEGRFIVSRDNDANSLYLQMTGLTRDDTAVYHCARAPYYEGNFQYNYAMDVWGLGTTVIVSS VL: GVVLTQSPGTLSLSPGERATVSCRASQSLSRDSLVWYQQKPGQPPRLLIYGTSNRVPGIPDRFSGGGSGTQFTLTISRLEPEDFAVYYCQNYGLSPLYSFGQGTKLEIK | binds
c10919 (antibody, V domains shown) VH: EVKLVESGGTQVQPGGSLRISCVGSGFRFSSYSFNWVRQAPGKGPEWLAYISASPFGRSKVTYAQSVEGRFTVSRDNDANSLYLQMTGLTRDDTAVYYCARAPYYEGNFHYNYAMDVWGLGTPVIVSS VL: GVVLTQSPGTLSVSPGERATISCRASQSLSRDSLVWYQQKPGQPPRLLIYGTSNRVPGIPDRFSGGGSGTQFTLTISRLEPEDFAVYYCQNYGLSPLFSFGQGTKLEIK | binds
c13217 (antibody, V domains shown) VH: QVQLVESGGGVVQPGKSLRLSCTASGFDVGHFTMHWVRQAPGKGLEWVGLTRTDGNTEEYADSVKGRFAISRDNSKNTLSLQLNNVRAEDTAVYYCAKERVPLTAYAFDYWGQGTLVTVSS VL: DIQMTQSPSSLSASVGDRVTITCRSSERIRTYVNWYQQKPGQAPQLLIYAASTLQNGVPSRFSGSGSGTVFTLTVNSLQPADFATYSCQQSYSLPWTFGQGTRVEVN | binds
c21122 (antibody, V domains shown) VH: QVQLAQSAAEVKRPGASVKVSCKVSGNTLMEVSIQWVRQTPGKGLEWLGGFAPEKDDWVYAQKFLGRVTMTEDTSTDIAYMHMNSLTSDDTATYYCVGGWQAWGQGTLVTVSS VL: DIQMTQSPSSLSASVGDRITITCRASQDIINYLAWYQQQAGRAPKSLIYAASSLQSGVPSKFSGSGSGTNFSLTISSLQPEDFATYYCQQYYSYPLTFGGGTKVDLR | binds
c11395 (antibody, V domains shown) VH: DVQLLQSNPQVTKPGTTMKISCKTSGFTFSDHFIHWVRLTPARGLEWLGLLDPQGGESVTVFSETFKDRVTMTADTSKNIAYMELHTLTSEDTALYFCATTTLENDDGDYVAAFDFWGQGTPVIVSS VL: QSVLTQTPSVSAAPGQKVTISCSGSTSNIGSNFVSWYQHSPGAAPRLIIYNNAERPSGIPARFSGSKSGSSATLAITGLQTEDEAEYFCAAWNNGLKSAHYVFGTGTRLSVL | binds
c18622 (antibody, V domains shown) VH: EVRLLESGGGLVQPGQSLRLSCAASGFTFRNYALAWVRQTPRKGLEWVSLLSSSGDGAFYADSLKGRFTISRDNSKNTLYLEGHSLRADDSAIYYCVKVRWLQYDWHFDLWGRGALVTVSS VL: AIRMTQSPSTLSASVGDRVTIACRASQDIGSSLAWYQQRPGQAPRLLIYKASVLEGGVPSRFSGSGSGTEFRLIISSLQADDYATYYCQQYSGYSCTFGQGTKVDIT | binds
c29288 (antibody, V domains shown) VH: QVRLQESGPGLVRPSETLSLTCLVSGDSITSNYWSWIRQPPGKTLEWIGFMYNSGDANYNPSLQSRVSISADTAKNHFALRLTSVTAADTAVYYCARHPSRGSDYESATGDTYYYYYGMDVWGPGIAVAVSS VL: DIQMTQSTPSLSASLGDKITISCQASRDIDTSLNWYQQKPGKSPKLLIVAASTLETGVPSRFSASGSGTHFTLTINDLHRDDVATYFCQQYMGLPLTFGGGTRVDLR | binds
c7488 (antibody, V domains shown) VH: QVRLEQWGGGLLKPSETLSLTCAAWDDNFHRYHWTWVRQFPGGRLQWIGQCEPFGAIKSNPSLGGRAGLSLDDSLRRFILTLRSLNVADTGVYFCVRGPERFHQPHFYYQGLGLWGPGSPVIVSS VL: DVELTQSPLSLSVNPGESVSLFCRSTESLRNANGHDYLDWYVQKPGQSPQILIFLGSGRASGLPDRITASGSGSAFTLRIDKVEADDVGVYYCMQSIQLPRTFGQGTRLEIK | binds
c24251 (antibody, V domains shown) VH: QVQLQESGPGLVKPSETLSLTCTVSGASINSYYWSWIRQTPGKGLEWIGFISNAGTTKYNPSLQSRVTISRDTSKNQVSLHLTSVTAADTAVYHCARDGLPGSNWGYNYAGMDVWGQGTTVTVTS VL: DIQMTQSPSTLSASVGDRVTITCRTSQPISVWLAWYQQKPGKAPKVLIYRASSLEDGVPSRFSGSGSGTEFTLTISSLQPDDFATYFCQHYNTFSRTFGQGTKVEIK | binds
c11450 (antibody, V domains shown) V domain 1: EVQLAQSGAEMRKPGTTVRISCVISGHTTTDYYVHWVQQAPGKGPQWMGLINFEDANTVYSQSFRGRVSISADISEKTVFLDLTGLTSGDTALYFCTTHTLEKDSGDYVSAFDSWGQGTLLSVSP V domain 2: QSMLTQPPSISAVPGQKVIISCSGRTSNIGTNFVSWYQQVPGAAPRLLMYDNSNRPSGISDRFSGAKSGSTATLAITALQTEDEADYYCGSWDSGLNPPIFVFGPGTRVFVI | binds
c13501 (antibody, V domains shown) VH: QVQLQQWGAGLLKPSETLSLTCAIYGGSFDDNSWTWIRQSPGGGLEWIGEIKYSGTSDYNLSLKSRITMSIDMSKKQFSLKLTSVTAADTGLYFCARARLSKFNSAWSWEHHYYMDVWATGTAVTVSS VL: DIQMTQSPSSLSASVGDRVTVTCRASQNIGNYLNWYQQKPGKAPKLLIFATSTLHGGVPSRFSGSGSGTDFTLSITNVQSEDVAIYFCQQSYSVPYSFGRGTSLDMR | binds
